Blank lines part the entries; values can stand above or below the binder they belong to.
Tests used:
[1] = molecular target: T1, GFP-La fusion protein La_(107–200) (Homo sapiens (Human)., UniProt P05455); assay: SDS-PAGE and immunoblotting; total extracts of HeLa cells transfected with GFP-La fusion constructs (N- or C-terminally truncated La); probed with anti-La mabs; anti-GFP as control; conditions: partners not purified
T1 construct: cloned into pEGFP-C2; pEGFP-C2 places GFP at the N-terminus of the insert (surmise); also called final La deletion mutant of Group 1; source: HeLa, transfected, in total extract

[2] = molecular target: T2, His-tagged La deletion mutant La_(278–408) (Homo sapiens (Human)., UniProt P05455); assay: SDS-PAGE and immunoblotting; His-tagged full length La and N- and C-terminally truncated La deletion mutants from E. coli (nickel-NTA); probed with 16C; 10-fold the usual amount of protein applied; conditions: one partner purified
T2 construct: cloned into pET28a

[3] = molecular target: T3, GFP-La fusion protein La_(10–100) (Homo sapiens (Human)., UniProt P05455); assay: SDS-PAGE and immunoblotting; total extracts of HeLa cells transfected with GFP-La fusion constructs (N- or C-terminally truncated La); probed with anti-La mabs; anti-GFP as control; conditions: partners not purified
T3 construct: human La protein, residues 10-100 (La motif region); cloned into pEGFP-C2; pEGFP-C2 places GFP at the N-terminus of the insert (surmise); also called final La deletion mutant of Group 2; source: HeLa, transfected, in total extract

[4] = molecular target: T4, eukaryotic human La protein of HeLa cells (Homo sapiens (Human)., UniProt P05455); assay: SDS-PAGE and immunoblotting; total extracts of human HeLa or mouse 3T3 cells, denatured on the blot; probed with hybridoma supernatants; conditions: partners not purified
T4 construct: human La/SS-B autoantigen, endogenous in HeLa cells; also called hLa; source: endogenous, HeLa total extract; endogenous, fixed HeLa cells

[5] = molecular target: T5, recombinant mouse La protein (Mus musculus (Mouse)., UniProt P32067); assay: SDS-PAGE and immunoblotting; human (rhLa) or mouse (rmLa) La protein recombinantly expressed in E. coli, denatured on the blot; probed with hybridoma supernatants; conditions: one partner purified
T5 construct: mouse La protein, open reading frame cloned into pET28b; also called rmLa; mLa (recombinant)

[6] = molecular target: T6, recombinant human La protein, full length (aa 1-408), His-tagged (Homo sapiens (Human)., UniProt P05455); assay: as above; conditions: one partner purified
T6 construct: also called rhLa; hLa; not shown: His tag, C-terminal, kept

[7] = molecular target: T6, recombinant human La protein, full …; assay: SDS-PAGE and immunoblotting; recombinant human La (rhLa) on the blot; probed with purified recombinant 312B Ig4 or 312B ge Ig4; conditions: both partners purified
Ro60 antigen = molecular target: T7, Ro60 antigen (Homo sapiens (assumed), UniProt P10155); assay: ELISA; hybridoma supernatants on Ro60 antigen; performed as in ref. 59
T7 construct: Ro60 (Ro/SS-A) antigen used in the anti-Ro ELISA; also called Ro/SS-A
T7 sequence (P10155 whole entry): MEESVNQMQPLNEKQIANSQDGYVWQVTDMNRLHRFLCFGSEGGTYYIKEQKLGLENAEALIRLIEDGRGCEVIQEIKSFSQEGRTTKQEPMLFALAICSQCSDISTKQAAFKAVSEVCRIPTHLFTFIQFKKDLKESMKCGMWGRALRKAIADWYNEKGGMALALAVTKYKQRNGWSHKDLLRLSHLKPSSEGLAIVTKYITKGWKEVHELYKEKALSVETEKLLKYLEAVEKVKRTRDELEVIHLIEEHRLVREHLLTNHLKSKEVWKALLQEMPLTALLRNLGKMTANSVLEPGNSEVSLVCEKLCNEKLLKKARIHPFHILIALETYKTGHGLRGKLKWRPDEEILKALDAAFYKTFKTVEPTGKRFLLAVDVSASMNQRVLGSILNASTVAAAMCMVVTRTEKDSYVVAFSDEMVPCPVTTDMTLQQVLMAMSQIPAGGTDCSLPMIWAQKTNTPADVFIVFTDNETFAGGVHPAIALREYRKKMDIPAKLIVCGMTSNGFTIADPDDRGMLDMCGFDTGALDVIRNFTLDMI

T3 sequence (P05455 10-100): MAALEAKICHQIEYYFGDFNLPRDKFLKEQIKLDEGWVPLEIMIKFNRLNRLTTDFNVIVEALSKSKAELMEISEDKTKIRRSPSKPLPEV
T6 sequence (P05455 whole entry, the tested form may be a part): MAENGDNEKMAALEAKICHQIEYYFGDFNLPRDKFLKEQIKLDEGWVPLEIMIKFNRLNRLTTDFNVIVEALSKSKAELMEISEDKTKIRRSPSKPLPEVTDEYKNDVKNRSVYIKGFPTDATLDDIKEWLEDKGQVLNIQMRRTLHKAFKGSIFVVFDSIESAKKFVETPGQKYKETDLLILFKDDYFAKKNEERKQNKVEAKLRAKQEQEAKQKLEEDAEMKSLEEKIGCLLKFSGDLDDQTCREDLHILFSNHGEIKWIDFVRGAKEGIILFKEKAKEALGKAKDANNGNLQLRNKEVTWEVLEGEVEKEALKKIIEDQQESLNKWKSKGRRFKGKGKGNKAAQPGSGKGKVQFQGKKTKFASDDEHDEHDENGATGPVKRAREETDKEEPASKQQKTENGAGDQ
T1 sequence (P05455 107-200): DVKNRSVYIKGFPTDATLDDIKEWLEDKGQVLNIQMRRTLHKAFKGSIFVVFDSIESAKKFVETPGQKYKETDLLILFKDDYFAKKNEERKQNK
T4 sequence (P05455 whole entry): as the sequence (P05455 whole entry, the tested form may be a part) above
T2 sequence (P05455 278-408, stated change not applied): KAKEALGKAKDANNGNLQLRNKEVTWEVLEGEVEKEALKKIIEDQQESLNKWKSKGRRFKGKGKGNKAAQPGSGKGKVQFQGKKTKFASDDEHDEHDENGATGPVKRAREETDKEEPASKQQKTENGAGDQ
T5 sequence (P32067 whole entry): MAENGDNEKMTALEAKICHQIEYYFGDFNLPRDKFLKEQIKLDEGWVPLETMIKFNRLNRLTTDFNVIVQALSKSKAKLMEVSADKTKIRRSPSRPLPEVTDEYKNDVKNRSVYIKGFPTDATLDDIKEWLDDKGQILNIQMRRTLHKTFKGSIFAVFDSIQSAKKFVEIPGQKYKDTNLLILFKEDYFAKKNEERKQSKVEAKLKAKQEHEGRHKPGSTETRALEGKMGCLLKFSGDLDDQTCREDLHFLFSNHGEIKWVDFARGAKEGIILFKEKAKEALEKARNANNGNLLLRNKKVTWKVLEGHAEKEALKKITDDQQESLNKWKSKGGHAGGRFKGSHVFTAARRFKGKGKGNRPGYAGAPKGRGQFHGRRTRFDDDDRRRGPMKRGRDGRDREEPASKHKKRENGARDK

B1: anti-La monoclonal antibody 22A (antibody, V domains shown)
VH: QVKLEESGPELVKPGAPVKISCKTSGYTFTNYYIYWVKQRPGQGLEWIGYIYPGNGGTAYNQKFKDKATLTADNPSNTAYMQLSSLTSEDSAVYLCARRGALGYYFDYWGQGTTLTVSS
VL: QIVLTQSPAIMSASPGEKVTMTCSASSSVSYMYWYQQKSGTSPKRWIYDTSKLASGVPARFSGSGSGTSYSLTISSMEAEDAATYYCQQWSSNPQFGTGTKLEVK
notes: variable heavy chain of 22A; variable light chain of 22A; IgG1; Vl kk4, JK5; From the human La transgenic mouse; also called Group 1 anti-La mab (22A); source: hybridoma cell culture supernatant
binding result [1]: binds

B2: IgM type anti-La monoclonal antibody 16C (antibody, V domains shown)
VH: EVKLEESGPELVKPGSSVKISCKASGYTFTDYNMDWVKQSHGKSLEWIGAINPNNGGTSYNQKFKGKATLTVDKSSSTAYMELRSLTSEDSAVYYCARRDGGSYEWAMDYWGQGTSVTVSS
VL: DIVLTQSPASLSMAIGEKVTIRCITSTDIDDDMNWYQQKPGEPPKLLISEGNTLRPGVPSRFSSSGYGTDFVFTIENMLSEDVADYYCLQSDNLPLTFGGGTKLEIK
notes: variable heavy chain of 16C; variable light chain of 16C; IgM; Vl bt20, JK2; From the human La transgenic mouse; called polyreactive; also called anti-La mab (16C); source: hybridoma cell culture supernatant
binding result [2]: binds

B5: recombinant antibody based on the mature 312B sequence (scFv fused on a human IgG4 hinge and Fc) (Fc fusion, mouse)
VH: QVKLQESGAELMKPGSSVKFSCKAAGYTFTDYWIEWLKQRPGHGLEWIGEILPGSVSIKYNEKFKGKATFTADTSSNTAYMQLSSLTSEDSAVYYCARSRSIYDGYFYYWGQGTTLTVSS
VL: DIVMTQSTASLSASVGETVTITCRASENIYTYLAWYQQKQGKSPQLLVYNAKTLAEGVPSRFSGSGSGTQFSLRINSLQPEDFGSYYCQHHYGTPYTFGGGTKLEIK
notes: linker, printed as (Gly4Ser)3; VH-VL orientation; an Igkappa leader peptide was fused to the N-terminus for secretion; vector p6NST50; source: stably transduced 3T3 cell line, purified from cell culture supernatant (protein A); not shown: hinge and Fc (CH2-CH3) of human IgG4, C-terminal, kept
binding result [7]: binds

B7: IgM type anti-Ro60 monoclonal antibody 312G (antibody, V domains shown)
VH: EVQLEESGPGLVAPSQSLSITCTVSGFSLSRYSVHWVRQPPGKGLEWLGMIWGGGSTDYNSALKSRLSISKDNSKSQVFLKMNSLQTDDTAIYYCATSNWPYAMDYWGQGTSVTVSS
VL: DIVMTQSPAIMSASPGEKVTMTCSASSSVSYMHWYQQKSGTSPKRWIYDTSKLASGVPARFSGSGSGTSYSLTISSMEAEDAATYYCQQWSSNPPTFGAGTKLELK
notes: variable heavy chain of 312G; variable light chain of 312G; IgM; Vl kk4, JK5; From the human La transgenic mouse; called polyreactive; also called anti-Ro mab (312G); anti-Ro60 mab; source: hybridoma cell culture supernatant
binding result (Ro60 antigen): binds | binding result [6]: no binding

B9: anti-La monoclonal antibody 27E (antibody, V domains shown)
VH: EVQLQESGAELARPGASVKLSCKASGYSFRSYGINWVKQRTGQGLEWIGEIYPGSGTTFYNEKFRGKATLTADKSSSTAYMQLKSLTSEDSAVYFCARHGGYPFYFDYWGQGTTLTVSS
VL: DIVMTQSPAIMSASPGEKVTISCSASSSVSYMYWYQQKPGSSPKPWIYRTSNLASGVPARFSGSGSGTSYSLTISSMEAEDAATYYCQQYHSYPRTFGGGTKLEIK
notes: variable heavy chain of 27E; variable light chain of 27E; IgG2b; Vl aa4, JK1; From the human La transgenic mouse; also called Group 2 anti-La mab (27E); source: hybridoma cell culture supernatant
binding result [3]: binds | binding result [4]: binds | binding result [6]: binds

Results, then the binder that gave them:

binding result [3]: binds
B3: anti-La monoclonal antibody 2F9 (antibody, V domains shown)
VH: EVQLQESGPGILQPSQTLSLTCSFSGFSLSTSGMGVSWIRQPSGKGLEWLAHIYWDDDKGYNPSLKSRLTISKDTSRNQVFLKITSVDTADTATYYCARGDVEFDYWGQGTTLTVSS
VL: DIVLTQSTASLAVSLGQRATISCRASESVDSYGNSFMHWYQQKPGQPPKLLIYRASNLESGIPARFSGSGSRTDFTLTINPVEADDVATYYCQQSNEDPPTFGSGTKLEIK
notes: variable heavy chain of 2F9; variable light chain of 2F9; IgG1; Vl 21-5, JK4; From the human La transgenic mouse; also called Group 2 anti-La mab (2F9); source: hybridoma cell culture supernatant

binding result [3]: binds | binding result [4]: binds | binding result [5]: binds | binding result [6]: binds
B4: anti-La monoclonal antibody 312B (antibody, V domains shown)
VH: QVKLQESGAELMKPGSSVKFSCKAAGYTFTDYWIEWLKQRPGHGLEWIGEILPGSVSIKYNEKFKGKATFTADTSSNTAYMQLSSLTSEDSAVYYCARSRSIYDGYFYYWGQGTTLTVSS
VL: DIVMTQSTASLSASVGETVTITCRASENIYTYLAWYQQKQGKSPQLLVYNAKTLAEGVPSRFSGSGSGTQFSLRINSLQPEDFGSYYCQHHYGTPYTFGGGTKLEIK
notes: IgG1; Vl 12-44, JK2; From the human La transgenic mouse; source: hybridoma cell culture supernatant

binding result [7]: no binding
B6: recombinant antibody based on the germline 312B sequence (scFv fused on a human IgG4 hinge and Fc) (Fc fusion, mouse)
VH: QVQLQQSGAELMKPGASVKLSCKATGYTFTGYWIEWVKQRPGHGLEWIGEILPGSGSTNYNEKFKGKATFTADTSSNTAYMQLSSLTTEDSAIYYCARSRSIYDGYFDYWGQGTTLTVSS
VL: DIQMTQSPASLSASVGETVTITCRASENIYSYLAWYQQKQGKSPQLLVYNAKTLAEGVPSRFSGSGSGTQFSLKINSLQPEDFGSYYCQHHYGTPYTFGGGTKLEIK
notes: as for B5

binding result [1]: binds
B8: anti-La monoclonal antibody 24BG7 (antibody, V domains shown)
VH: QVQLQQSGAELARPGASVKLSCKASGYSLTNYGISWVKQRTGQGLEWIGEIYRGSGNSYYNEKFKGKASLTADKSSSTAYMQLSSLTSEDSAVYFCARGGLSFAYWGQGTLVTVSA
VL: QIVLTQSPAIMSASPGEKVTMTCSASSSVTYMHWYQQKSGTSPKRWIYDTSKLASGVPARFSGSGSGTSYSLTISTMEAEDAATYYCQQWISNPPTFGGGTKLEIK
notes: variable heavy chain of 24BG7; variable light chain of 24BG7; IgG1; Vl kk4, JK2; From the human La transgenic mouse; also called Group 1 anti-La mab (24BG7); source: hybridoma cell culture supernatant

binding result [3]: binds
B10: anti-La monoclonal antibody 32A (antibody, V domains shown)
VH: EVQLQQSGAELARPGASVKLSCKASGYTFTTYGLTWVKQRTGQGLEWIGEIFPGSGTTFYNEKFNDKATLTADKSSSTAYMQLTSLTSEDSAVYFCARYSNYPYYFDYWGQGTTLTVSS
VL: QIVLTQSPTIMSASPGEKVTISCSASSSVSYMYWYQQKPGSSPKPWIYRTSNLASGVPDRFSGSGSGTSYSLTISSMEAEDAATYYCQQYHSYPRTFGGGTKLEIK
notes: variable heavy chain of 32A; variable light chain of 32A; IgG1; Vl aa4, JK1; From the human La transgenic mouse; also called Group 2 anti-La mab (32A); source: hybridoma cell culture supernatant

From article PMC7865296, “T Cell Mediated Conversion of a Non-Anti-La Reactive B Cell to an Autoreactive Anti-La B Cell by Somatic Hypermutation †” (International Journal of Molecular Sciences, 2021)
